These results are taken from patent US9688760B2, “Anti-leukocyte adhesion for the mitigation of potential adverse events caused by CD3-specific binding domains” (AMGEN RESEARCH (MUNICH) GMBH, priority 2013, dated 2017).

This test concerns HBMEC. As to the kind of experiment: In vitro flow chamber: T cell-rolling on HBMEC, long-term conditions. The class given is cell-based, human. To be noted: non-stimulated HBMEC, 45 min. As to the method: Human brain microvascular endothelial cells (HBMEC) (#1000, Sciencell Research Laboratories) or human umbilical vein endothelial cells (HUVEC) (#C-12200, Promocell) were used as endothelial cell-model. Cryopreserved HBMEC at passage 1 (>5×10^5 cells/ml) were first cultivated in fibronectin-coated Nunclon-treated 75 cm^2 cell culture flasks (#156499, Nunc) at 37° C. and 5% CO2 in a Heraeus Cytoperm 2 (Thermo Scientific) according to the manufacturer's instructions. Sub-cultivation of HBMEC was done with the Detach Kit (#C-41200, Promocell) consisting of HEPES-buffered balanced salt solution (#C-40000, Promocell), trypsin-EDTA solution (0.04%/0.03%) (#C-41000, Promocell) and trypsin neutralization solution (TNS, #C-41100, Promocell). Briefly, the medium was aspirated from the HBMEC-layer and cells were washed with 2 ml of HEPES-buffered balanced salt solution. Addition of 2 ml of trypsin-EDTA solution for 1-5 min at room temperature led to detachment of HBMEC from the flask bottom. Inactivation of trypsin-EDTA solution was performed by addition of 2 ml of trypsin neutralization solution to the cell suspension. Cells were centrifuged at 300 g for 4 min in a Heraeus Megafuge 40 (Thermo Scientific) and seeded at a cell density of 5×10^5 cells per gelatin-coated 75 cm^2 cell culture flask (#L7230, Biochrom). […]

B1: recombinant P-selectin: recombinant human P-selectin (#ADP3-050, R&D Systems) (protein)
chain: WTYHYSTKAYSWNISRKYCQNRYTDLVAIQNKNEIDYLNKVLPYYSSYYWIGIRKNNKTWTWVGTKKALTNEAENWADNEPNNKRNNEDCVEIYIKSPSAPGKWNDEHCLKKKHALCYTASCQDMSCSKQGECLETIGNYTCSCYPGFYGPECEYVRECGELELPQHVLMNCSHPLGNFSFNSQCSFHCTDGYQVNGPSKLECLASGIWTNKPPQCLAAQCPPLKIPERGNMTCLHSAKAFQHQSSCSFSCEEGFALVGPEVVQCTASGVWTAPAPVCKAVQCQHLEAPSEGTMDCVHPLTAFAYGSSCKFECQPGYRVRGLDMLRCIDSGHWSAPLPTCEAISCEPLESPVHGSMDCSPSLRAFQYDTNCSFRCAEGFMLRGADIVRCDNLGQWTAPAPVCQALQCQDLPVPNEARVNCSHPFGAFRYQSVCSFTCNEGLLLVGASVLQCLATGNWNSVPPECQAIPCTPLLSPQNGTMTCVQPLGSSSYKSTCQFICDEGYSLSGPERLDCTRSGRWTDSPPMCEAIKCPELFAPEQGSLDCSDTRGEFNVGSTCHFSCDNGFKLEGPNNVECTTSGRWSATPPTCKGIASLPTPGVQCPALTTPGQGTMYCRHHPGTFGFNTTCYFGCNAGFTLIGDSTLSCRPSGQWTAVTPACRAVKCSELHVNKPIAMNCSNLWGNFSYGSICSFHCLEGQLLNGSAQTACQENGHWSTTVPTCQAGPLTIQEALTYFGGAVASTIGLIMGGTLLALLRKRFRQKDDGKCPLNPHSHLGTYGVFTNAAFDPSP
For B1, the “mean T cell-rolling velocity±SD” value is, setting by setting: (T cells pre-incubated with 5 μg/ml recombinant P-selectin, +AMG 103 10 ng/ml) 402±93 μm/sec; (−AMG 103, +rec. P-selectin 5 μg/ml) 384±70 μm/sec.
